Consider 23 substances from US20200164114A1.

For assay [1], the target named is integrin αIIbβ3 on human platelets (human) (UniProt P08514). Briefly: cell-based or functional assay.
Assay [2] addresses integrin αIIbβ3 on CHO cells (CHO-αIIbβ3) (UniProt P08514). In words: cell adhesion inhibition: CHO-αIIbβ3 cells to immobilized fibrinogen.
Assay [3] deals with integrin αvβ3 on CHO cells (CHO-αvβ3) (UniProt P06756). In words: cell adhesion inhibition: CHO-αvβ3 cells to immobilized fibrinogen.

Where only a bound is given, the exact number is not on record here.

Chain of integrin αIIbβ3 on human platelets (human) (P08514 32-1039, chain 1 of 2): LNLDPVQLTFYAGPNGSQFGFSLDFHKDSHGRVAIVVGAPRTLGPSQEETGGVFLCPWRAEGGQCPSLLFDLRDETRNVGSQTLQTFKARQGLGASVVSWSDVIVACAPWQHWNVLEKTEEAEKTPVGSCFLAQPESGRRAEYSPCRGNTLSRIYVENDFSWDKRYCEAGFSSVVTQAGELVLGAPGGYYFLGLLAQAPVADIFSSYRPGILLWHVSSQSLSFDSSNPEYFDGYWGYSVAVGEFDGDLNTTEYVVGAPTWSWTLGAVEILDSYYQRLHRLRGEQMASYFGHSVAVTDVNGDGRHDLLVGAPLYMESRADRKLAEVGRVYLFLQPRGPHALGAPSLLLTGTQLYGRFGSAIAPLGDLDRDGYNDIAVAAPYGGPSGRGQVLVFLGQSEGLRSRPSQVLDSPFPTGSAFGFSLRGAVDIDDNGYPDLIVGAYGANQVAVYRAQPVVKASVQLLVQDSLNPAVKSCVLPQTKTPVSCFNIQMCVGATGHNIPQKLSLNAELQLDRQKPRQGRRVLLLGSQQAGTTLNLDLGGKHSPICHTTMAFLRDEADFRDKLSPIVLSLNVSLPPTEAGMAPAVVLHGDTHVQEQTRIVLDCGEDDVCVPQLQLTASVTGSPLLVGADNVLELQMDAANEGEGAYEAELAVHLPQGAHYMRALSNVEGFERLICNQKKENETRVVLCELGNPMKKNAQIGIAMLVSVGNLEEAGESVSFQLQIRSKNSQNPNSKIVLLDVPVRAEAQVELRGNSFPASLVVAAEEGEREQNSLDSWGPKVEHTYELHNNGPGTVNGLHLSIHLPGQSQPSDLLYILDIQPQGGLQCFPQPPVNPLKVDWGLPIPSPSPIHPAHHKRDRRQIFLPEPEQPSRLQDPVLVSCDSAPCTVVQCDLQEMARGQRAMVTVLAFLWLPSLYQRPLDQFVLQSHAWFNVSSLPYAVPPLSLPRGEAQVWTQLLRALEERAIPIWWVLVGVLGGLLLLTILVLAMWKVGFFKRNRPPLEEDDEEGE
Chain of integrin αIIbβ3 on human platelets (human) (P05106 27-788, chain 2 of 2, further chain): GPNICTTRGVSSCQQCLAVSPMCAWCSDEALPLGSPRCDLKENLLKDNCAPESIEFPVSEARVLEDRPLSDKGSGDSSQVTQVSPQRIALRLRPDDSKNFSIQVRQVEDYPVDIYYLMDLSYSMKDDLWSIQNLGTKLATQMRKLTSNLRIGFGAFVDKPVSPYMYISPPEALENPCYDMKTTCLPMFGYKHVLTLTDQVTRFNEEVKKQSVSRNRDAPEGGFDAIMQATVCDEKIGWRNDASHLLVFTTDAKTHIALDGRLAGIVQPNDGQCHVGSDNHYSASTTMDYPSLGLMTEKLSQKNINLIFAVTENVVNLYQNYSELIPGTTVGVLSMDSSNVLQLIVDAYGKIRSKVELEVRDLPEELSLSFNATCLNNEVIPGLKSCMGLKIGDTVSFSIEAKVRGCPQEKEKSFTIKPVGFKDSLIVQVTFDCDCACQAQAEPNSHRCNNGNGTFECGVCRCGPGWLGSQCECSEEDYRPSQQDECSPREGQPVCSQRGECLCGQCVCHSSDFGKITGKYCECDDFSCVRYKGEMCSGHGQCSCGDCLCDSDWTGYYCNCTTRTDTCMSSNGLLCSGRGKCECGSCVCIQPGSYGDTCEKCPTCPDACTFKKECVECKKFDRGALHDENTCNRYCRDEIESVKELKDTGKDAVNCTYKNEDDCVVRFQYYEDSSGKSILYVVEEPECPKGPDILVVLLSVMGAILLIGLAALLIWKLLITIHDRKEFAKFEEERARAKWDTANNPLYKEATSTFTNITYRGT

As to rhodostomin mutant R/K, the Platelet aggregation IC50 (nM), ADP in assay [1] came to 152 nM. In assay [2], this substance came in with a 50% inhibitory concentration (IC50) of 89.8 nM.
Take trimucrin mutant T/KH: in assay [1], the Platelet aggregation IC50 (nM), ADP was found to be 382 nM and the Platelet aggregation IC50 (nM), Collagen is 99.3 nM. The same substance showed a 50% inhibitory concentration (IC50) in assay [2] of 15700 nM.
Taken in the same sequence, the figures for trimucrin mutant T/KF were 154 nM, 68.9 nM and 5550 nM.
In assay [3], rhodostomin gave a concentration for half-maximal inhibition (IC50) of 13 nM. In assay [1], this substance returned a Platelet Aggregation IC50 of 83.2 nM; a Platelet aggregation IC50 (nM), ADP of 81.5 nM; a Platelet aggregation IC50 (nM), Collagen of 66.8 nM. The substance also had an IC50 in assay [2] of 59.5 nM.
On to trimucrin mutant T/IEEGKS, for which, in assay [1], the Platelet aggregation IC50 (nM), ADP turned out to be 563 nM and the Platelet aggregation IC50 (nM), Collagen was 632 nM. In addition, the IC50 in assay [2] is above 195000 nM.
Taken in the same sequence, the figures for trimucrin mutant T/KHR were 256 nM, 80.1 nM and 5980 nM.
With trimucrin mutant T/KRKR, in assay [1], the Platelet aggregation IC50 (nM), ADP came to 138 nM. In assay [2], the IC50 worked out at 13900 nM.
In assay [1], trimucrin T/KRRR mutant yielded a Platelet Aggregation IC50 of 127 nM; a Platelet aggregation IC50 (nM), ADP of 127 nM; a Platelet aggregation IC50 (nM), Collagen of 30.6 nM. In assay [2], the 50% inhibitory concentration (IC50) came out at 6580 nM.
Regarding trimucrin mutant T/KS, in assay [1], the Platelet aggregation IC50 (nM), ADP came to 1080 nM and the Platelet aggregation IC50 (nM), Collagen turned out to be 562 nM. For the same substance, the IC50 in assay [2] stood at 39900 nM.
Take trimucrin (TMV-7): in assay [1], the Platelet aggregation IC50 (nM), ADP was determined as 184 nM and the Platelet aggregation IC50 (nM), Collagen worked out at 83.8 nM.
Regarding trimucrin mutant T/KFRFH, in assay [1], the Platelet aggregation IC50 (nM), ADP turned out to be 120 nM and the Platelet aggregation IC50 (nM), Collagen came to 63.1 nM. Also, the IC50 in assay [2] was 3190 nM.
The like results for trimucrin mutant T/KY were, in that order, 246 nM, 44.9 nM and 3300 nM.
Taken in the same sequence, the figures for trimucrin mutant T/KRR were 213 nM, 30.9 nM and 7330 nM.
In assay [1], trimucrin mutant T/KRRFH yielded a Platelet aggregation IC50 (nM), ADP of 192 nM and a Platelet aggregation IC50 (nM), Collagen of 66.9 nM. In assay [2], the IC50 worked out at 5600 nM.
The like results for trimucrin mutant T/KYR were, in that order, 117 nM, 61 nM and 1460 nM.
Taken in the same sequence, the figures for trimucrin mutant T/MGKWN were 78 nM, 48.5 nM and 1720 nM.
As for trimucrin mutant T/IEEGK, in assay [1], the Platelet aggregation IC50 (nM), ADP worked out at 1050 nM and the Platelet aggregation IC50 (nM), Collagen stood at 217 nM. In assay [2], this substance returned an IC50 of 97600 nM.
The like results for trimucrin mutant T/IEEGKRR were, in that order, 511 nM, 57.5 nM and 33800 nM.
The like results for trimucrin mutant T/K were, in that order, 563 nM, 105 nM and 27300 nM.
In assay [1], trimucrin mutant T/KWN had a Platelet aggregation IC50 (nM), ADP of 125 nM and a Platelet aggregation IC50 (nM), Collagen of 67.7 nM. The substance further yielded an IC50 in assay [2] of 1780 nM.
Taken in the same sequence, the figures for trimucrin mutant T/KR were 141 nM, 49.9 nM and 6310 nM.
With trimucrin mutant T/KWNR, in assay [1], the Platelet aggregation IC50 (nM), ADP turned out to be 54.6 nM and the Platelet aggregation IC50 (nM), Collagen was determined as 52.4 nM. In assay [2], this substance came in with an IC50 above 692 nM.
The like results for trimucrin mutant T/KWR were, in that order, 106 nM, 26.3 nM and 290 nM.

Usually IC50 stands for the concentration that gives 50% inhibition.
